Test results taken from patent publication US20050054023.

Columns and labels:
[1] = system: T1, EGF RECEPTOR (Thr669) peptide RRELVEPLTPSGEA
T1 sequence: RRELVEPLTPSGEA

[2] = system: T2, MBPtide (Thr97) APRTPGGRR
T2 sequence: APRTPGGR

[3] = system: T3, TH (rat) Ser19 peptide RRAVSEQDAK
T3 sequence: RRAVSEQDAK

[4] = system: T4, TH (rat) Ser40 peptide GRRQSLIEDAR
T4 sequence: GRRQSLIEDAR

[5] = system: T5, TH (rat) Ser8 peptide PTPSAPSPQPK
T5 sequence: PTPSAPSPQPK

[6] = system: T6, rat TH-Ser31 peptide KQAEAVTSPR
T6 sequence: KQAEAVTSPR

ERKtide = system: T7, ERKtide
T7 sequence: ATGPLSPFGRR

peptide QATGPLSPGFRR-NH2 = system: T8, peptide QATGPLSPGFRR-NH2
T8 sequence: QATGPLSPGFRR

[7] = system: T9, peptide QATGPLSPGPFRR-NH2
T9 sequence: QATGPLSPGPFRR

[8] = system: T10, peptide YQATGPLSPGFRR-NH2
T10 sequence: YQATGPLSPGFRR

[9] = system: T11, peptide YQATGPLSPGPFRR-NH2
T11 sequence: YQATGPLSPGPFRR

[10] = system: T12, rat TH-Ser31 peptide AVTSPRFIGRR
T12 sequence: AVTSPRFIGRR

[11] = system: T13, rat TH-Ser31 peptide EAVTSPRFIGRR
T13 sequence: EAVTSPRFIGRR

[12] = system: T14, type 1 human TH-Ser31 peptide AIMSPRFIGRR
T14 sequence: AIMSPRFIGRR

[13] = system: T15, type 1 human TH-Ser31 peptide EAIMSPRFIGRR
T15 sequence: EAIMSPRFIGRR

[14] = system: T16, type 1 human TH-Ser31 peptide EAIMSPRFK
T16 sequence: EAIMSPRFK

[15] = system: T17, type 1 human TH-Ser31 peptide QAEAIMSPRFGRR-NH2
T17 sequence: QAEAIMSPRFGRR

[16] = system: T18, type 1 human TH-Ser31 peptide YQAEAIMSPRFIGRR-NH2
T18 sequence: YQAEAIMSPRFIGRR

[17] = system: T19, type 1 human TH-Ser31 peptide YQAEAIMSPRFIGRRQ
T19 sequence: YQAEAIMSPRFIGRRQ

[18] = system: T20, type 2 human TH-Ser31 peptide EAIMVRGQSPRFK
T20 sequence: EAIMVRGQSPRFK

[19] = system: T21, type 2 human TH-Ser31 peptide IMVRGQSPR
T21 sequence: IMVRGQSPR

[20] = system: T22, type 2 human TH-Ser31 peptide YIMVRGQSPR
T22 sequence: YIMVRGQSPR

Chain of extracellular signal-regulated protein kinase 2 (purified, recombinant, activated ERK2) (P28482 2-360): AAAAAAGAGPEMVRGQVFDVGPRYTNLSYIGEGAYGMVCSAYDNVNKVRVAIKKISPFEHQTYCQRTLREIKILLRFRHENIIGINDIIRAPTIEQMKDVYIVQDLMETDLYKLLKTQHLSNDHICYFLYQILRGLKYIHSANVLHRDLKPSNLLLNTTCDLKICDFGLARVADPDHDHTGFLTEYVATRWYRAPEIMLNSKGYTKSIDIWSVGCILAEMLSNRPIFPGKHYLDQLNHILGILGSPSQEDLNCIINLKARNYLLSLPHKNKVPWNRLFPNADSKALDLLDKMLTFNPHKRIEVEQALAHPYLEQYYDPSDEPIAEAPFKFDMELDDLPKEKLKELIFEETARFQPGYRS
Chain of extracellular signal-regulated protein kinase 1 (purified, activated ERK1) (P27361 2-379): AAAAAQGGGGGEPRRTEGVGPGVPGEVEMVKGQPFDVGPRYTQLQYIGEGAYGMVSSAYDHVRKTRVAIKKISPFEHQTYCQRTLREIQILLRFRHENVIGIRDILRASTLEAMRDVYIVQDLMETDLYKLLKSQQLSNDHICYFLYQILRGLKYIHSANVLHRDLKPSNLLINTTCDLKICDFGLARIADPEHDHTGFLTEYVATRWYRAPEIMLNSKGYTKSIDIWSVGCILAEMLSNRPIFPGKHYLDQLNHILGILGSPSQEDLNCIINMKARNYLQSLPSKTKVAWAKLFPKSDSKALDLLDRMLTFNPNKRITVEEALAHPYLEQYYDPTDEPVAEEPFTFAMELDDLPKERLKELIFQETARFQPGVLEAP

In the case of “extracellular signal-regulated protein kinase 1 (purified, activated ERK1)”, the RELATIVE ^32P INCORPORATION (% OF MBP) [1] is reported as 13 % OF MBP, the RELATIVE ^32P INCORPORATION (% OF MBP) [2] is reported as 28 % OF MBP and the “^32P incorporation” value [2] is reported as “^32P incorporation into MBPtide (SEQ ID NO: 2) was 330 nmol/min/mg”. For the same substance, the RELATIVE ^32P INCORPORATION (% OF MBP) [3] was under 1 % OF MBP, the RELATIVE ^32P INCORPORATION (% OF MBP) [4] was under 1 % OF MBP and the RELATIVE ^32P INCORPORATION (% OF MBP) [5] was under 1 % OF MBP. For the same substance, the RELATIVE ^32P INCORPORATION (% OF MBP) (myelin basic protein) was 100 % OF MBP and the RELATIVE ^32P INCORPORATION (% OF MBP) [6] was 5 % OF MBP.

With “extracellular signal-regulated protein kinase 2 (purified, recombinant, activated ERK2)” the Km(app) (ERKtide) was 600 µM, the Vmax(app) Relative (ERKtide) was 82 Relative and the “apparent Vmax” value (ERKtide) was “The apparent Vmax of ERKtide (SEQ ID NO: 23) was 9.4 µmol/min/mg”. It also gave a Km(app) [2] of 2000 µM, a Vmax(app) Relative [2] of 46 Relative and an RELATIVE ^32P INCORPORATION (% 3.0 µmol/min/mg), Mean (% 3.0 µmol/min/mg) (peptide QATGPLSPGFRR-NH2) of 182. It also gave an RELATIVE ^32P INCORPORATION (% 3.0 µmol/min/mg), Mean (% 3.0 µmol/min/mg) [7] of 143, an RELATIVE ^32P INCORPORATION (% 3.0 µmol/min/mg), Mean (% 3.0 µmol/min/mg) [8] of 215 and an RELATIVE ^32P INCORPORATION (% 3.0 µmol/min/mg), Mean (% 3.0 µmol/min/mg) [9] of 164. The RELATIVE ^32P INCORPORATION (% 3.3 µmol/min/mg) (% 3.3 µmol/min/mg) [10] was 9, the RELATIVE ^32P INCORPORATION (% 3.3 µmol/min/mg) (% 3.3 µmol/min/mg) [11] was 20 and the Km(app) [6] was 1800 µM. For the same substance, the RELATIVE ^32P INCORPORATION (% 3.3 µmol/min/mg) (% 3.3 µmol/min/mg) [6] was 7, the Vmax(app) Relative [6] was 9 Relative and the RELATIVE ^32P INCORPORATION (% 3.3 µmol/min/mg) (% 3.3 µmol/min/mg) [12] was 29. It also gave an RELATIVE ^32P INCORPORATION (% 3.3 µmol/min/mg) (% 3.3 µmol/min/mg) [13] of 41, a Km(app) [14] of 1400 µM and an RELATIVE ^32P INCORPORATION (% 3.3 µmol/min/mg) (% 3.3 µmol/min/mg) [14] of 21. It also gave a Vmax(app) Relative [14] of 42 Relative, an RELATIVE ^32P INCORPORATION (% 3.0 µmol/min/mg), Mean (% 3.0 µmol/min/mg) [15] of 107 and an RELATIVE ^32P INCORPORATION (% 3.0 µmol/min/mg), Mean (% 3.0 µmol/min/mg) [16] of 117. For the same substance, the RELATIVE ^32P INCORPORATION (% 3.3 µmol/min/mg) (% 3.3 µmol/min/mg) [16] was 100, the “^32P incorporation” value [16] was 100 percent 32p incorporation reflects 3.3 µmol/min/mg and the Km(app) [17] was 1000 µM. For the same substance, the RELATIVE ^32P INCORPORATION (% 3.0 µmol/min/mg), Mean (% 3.0 µmol/min/mg) [17] was 100, the RELATIVE ^32P INCORPORATION (% 3.3 µmol/min/mg) (% 3.3 µmol/min/mg) [17] was 80 and the Vmax(app) Relative [17] was 80 Relative. For the same substance, the “^32P incorporation” value [17] was 100 percent ^32P incorporation reflects 3.0 µmol/min/mg, the RELATIVE ^32P INCORPORATION (% 3.3 µmol/min/mg) (% 3.3 µmol/min/mg) [18] was 2 and the RELATIVE ^32P INCORPORATION (% 3.3 µmol/min/mg) (% 3.3 µmol/min/mg) [19] was 1. The RELATIVE ^32P INCORPORATION (% 3.3 µmol/min/mg) (% 3.3 µmol/min/mg) [20] was 1.
